In assay [1] the target is T1, IL-7 receptor ectodomain (rhIL-7Rα) (human, UniProt P16871 21-239).
T1 chain: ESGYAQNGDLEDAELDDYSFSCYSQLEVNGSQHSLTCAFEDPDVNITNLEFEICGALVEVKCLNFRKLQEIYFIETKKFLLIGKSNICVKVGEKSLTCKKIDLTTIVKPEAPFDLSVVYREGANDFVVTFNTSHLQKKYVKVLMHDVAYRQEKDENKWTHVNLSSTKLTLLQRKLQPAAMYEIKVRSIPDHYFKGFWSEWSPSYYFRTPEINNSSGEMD
In words: SPR.

Assay [2] has as its target T2, N-terminal fragment of MMP-9-cleaved human IL-7 produced in E. coli (IL-7*) (human, UniProt P13232 26-128).
T2 construct: Interleukin-7, human, N-terminal fragment up to Ala128 (MMP-9 cleavage between Ala128 and Leu129); source: bought: Peprotech (produced in E. coli), then digested with MMP-9
T2 sequence (looked up): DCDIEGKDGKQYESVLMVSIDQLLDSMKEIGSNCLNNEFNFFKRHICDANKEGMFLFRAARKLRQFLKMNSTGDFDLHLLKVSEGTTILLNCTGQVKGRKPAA
In words: non-reducing SDS-PAGE; IL-7 digested with MMP-9, electrophoresis with SDS and without reducing agent, compared with reducing conditions. The note with it: both partners purified.

The target in assay [3] is T3, N-terminal fragment of MMP-9-cleaved His-tagged human IL-7 produced in insect cells (IL-7*) (human, UniProt P13232 26-128, N-linked glycosylation (partially glycosylated; sites shown in Figure 1D)).
T3 construct: Interleukin-7, human, N-terminal fragment up to Ala128 (MMP-9 cleavage between Ala128 and Leu129); also called N-terminal fragment of IL-7; source: bought: Novus (produced in insect cells), then digested with MMP-9
T3 sequence (looked up): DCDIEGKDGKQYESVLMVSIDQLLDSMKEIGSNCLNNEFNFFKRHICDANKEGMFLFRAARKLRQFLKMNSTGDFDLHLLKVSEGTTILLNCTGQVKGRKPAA
In words: pull-down; His-tagged IL-7 (C-terminal tag) digested with MMP-9, histidine tag pull-down with Ni-NTA magnetic microbeads under native conditions; bound and non-bound proteins resolved by reducing SDS-PAGE. The following applies: both partners purified.

Assay [4] has as its target T4, N-terminal fragment of MMP-9-cleaved human IL-7 produced in HEK-293 cells (IL-7*) (human, UniProt P13232 26-128, N-linked oligosaccharides (sites shown in Figure 1D)).
T4 construct: Interleukin-7, human, N-terminal fragment up to Ala128 (MMP-9 cleavage between Ala128 and Leu129); source: bought: Biolegend (produced in human HEK-293 cells), then digested with MMP-9
T4 sequence (looked up): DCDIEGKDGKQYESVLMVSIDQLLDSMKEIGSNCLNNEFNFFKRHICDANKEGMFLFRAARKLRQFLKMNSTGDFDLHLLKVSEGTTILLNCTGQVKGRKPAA
In words: non-reducing SDS-PAGE; IL-7 digested with MMP-9, electrophoresis with SDS and without reducing agent, compared with reducing conditions. The following applies: both partners purified.

B1: MMP-9-cleaved recombinant human IL-7 produced in E. coli (cIL-7) (complex)
chain 1: DCDIEGKDGKQYESVLMVSIDQLLDSMKEIGSNCLNNEFNFFKRHICDANKEGMFLFRAARKLRQFLKMNSTGDFDLHLLKVSEGTTILLNCTGQVKGRKPAA
chain 2: LGEAQPTKSLEENKSLKEQKKLNDLCFLKRLLQEIKTCWNKILMGTKEH
Regarding B1, the affinity in assay [1], expressed as Kd, was 64 nM.

B2: MMP-9-cleaved recombinant human IL-7 produced in human HEK-293 cells (cIL-7) (complex)
chain 1: DCDIEGKDGKQYESVLMVSIDQLLDSMKEIGSNCLNNEFNFFKRHICDANKEGMFLFRAARKLRQFLKMNSTGDFDLHLLKVSEGTTILLNCTGQVKGRKPAA
chain 2: LGEAQPTKSLEENKSLKEQKKLNDLCFLKRLLQEIKTCWNKILMGTKEH
modifications: N-linked oligosaccharides (sites shown in Figure 1D)
In assay [1], B2 registered a Kd of 290 nM.

B3: C-terminal fragment of MMP-9-cleaved human IL-7 produced in E. coli (IL-7**) (domain or fragment, UniProt P13232 129-177, looked up)
chain: LGEAQPTKSLEENKSLKEQKKLNDLCFLKRLLQEIKTCWNKILMGTKEH
notes: Interleukin-7, human, C-terminal fragment from Leu129 (neo-N-terminus LGEAQ); source: bought: Peprotech (produced in E. coli), then digested with MMP-9
Regarding B3, the binding result in assay [2] is “binds”.

B4: C-terminal fragment of MMP-9-cleaved His-tagged human IL-7 produced in insect cells (IL-7**) (domain or fragment, UniProt P13232 129-177, looked up)
chain: LGEAQPTKSLEENKSLKEQKKLNDLCFLKRLLQEIKTCWNKILMGTKEH
notes: Interleukin-7, human, C-terminal fragment from Leu129 (neo-N-terminus LGEAQ); Held on nickel beads by the C-terminal His tag; source: bought: Novus (produced in insect cells), then digested with MMP-9; not shown: His tag, C-terminal, kept
For the molecule B4, the binding result in assay [3] is recorded as “binds”.

B5: C-terminal fragment of MMP-9-cleaved human IL-7 produced in HEK-293 cells (IL-7**) (domain or fragment, UniProt P13232 129-177, looked up)
chain: LGEAQPTKSLEENKSLKEQKKLNDLCFLKRLLQEIKTCWNKILMGTKEH
notes: Interleukin-7, human, C-terminal fragment from Leu129 (neo-N-terminus LGEAQ); source: bought: Biolegend (produced in human HEK-293 cells), then digested with MMP-9
B5: the binding result in assay [4] is “binds”.
